The source of these data is patent publication US20180346602A1.

Assay [1] deals with anti-VEGF/ANG2 antibody (IgG1 subclass with mutations P329G/L234A/L235A/I253A/H310A/H435A) (human) [IgG part: P01857]. Briefly: sandwich ELISA in serum; M1.3.17-Bi capture on SA plate; tracer anti-human kappa M1.7.10-Dig; analyte 0 ng/mL (blank).
In assay [2] the target is anti-VEGF/ANG2 antibody (IgG1 subclass with mutations P329G/L234A/L235A) [IgG part: P01857]. As to the kind of experiment: sandwich ELISA assay E; tracer M1.7.10-Dig; analyte 2) at 100 ng/mL. (In general: ELISA stands for enzyme-linked immunosorbent assay.)
Assay [3] deals with anti-Dig antibody (IgG1 subclass with mutations P329G/L234A/L235A) [IgG part: P01857]. Briefly: sandwich ELISA assay D; tracer M1.7.10-Dig; analyte conc. not printed (row 6 of 8).
Assay [4] concerns the target anti-VEGF/ANG2 antibody (IgG1 subclass with mutations P329G/L234A/L235A/I253A/H310A/H435A) (human) [IgG part: P01857]. As to the kind of experiment: sandwich ELISA in serum; M1.3.17-Bi capture on SA plate; tracer anti-human kappa M1.7.10-Dig; analyte 10 ng/mL.
The target of assay [5] is anti-VEGF/ANG2 antibody (IgG1 subclass with mutations P329G/L234A/L235A/I253A/H310A/H435A) [IgG part: P01857]. Briefly: bridging ELISA; biotinylated and digoxigenylated anti-VEGF/ANG2 antibody bridged by M1.3.17 at 250 ng/mL.
In assay [6] the target is anti-Dig antibody (IgG1 subclass with mutations P329G/L234A/L235A) [IgG part: P01857]. Briefly: sandwich ELISA assay D; tracer M1.7.10-Dig; analyte conc. not printed (row 2 of 8).
Assay [7] concerns the target anti-VEGF/ANG2 antibody (IgG1 subclass with mutations P329G/L234A/L235A/I253A/H310A/H435A) [IgG part: P01857]. As to the kind of experiment: sandwich ELISA assay E; tracer M1.7.10-Dig; analyte 1) at 25 ng/mL.
The target in assay [8] is anti-VEGF/ANG2 antibody (IgG1 subclass with mutations P329G/L234A/L235A) [IgG part: P01857]. Briefly: sandwich ELISA assay E; tracer M1.7.10-Dig; analyte 2) at 12.5 ng/mL.
For assay [9], the target named is anti-VEGF/ANG2 antibody (IgG1 subclass with mutations P329G/L234A/L235A/I253A/H310A/H435A) (human) [IgG part: P01857]. Briefly: sandwich ELISA in serum; M1.3.17-Bi capture on SA plate; tracer anti-human kappa M1.7.10-Dig; analyte 0.15625 ng/mL.
In assay [10] the target is anti-VEGF/ANG2 antibody (IgG1 subclass with mutations P329G/L234A/L235A) [IgG part: P01857]. As to the kind of experiment: sandwich ELISA assay E; tracer M1.7.10-Dig; analyte 2) at 1.5625 ng/mL.
The target of assay [11] is anti-Dig antibody (IgG1 subclass with mutations P329G/L234A/L235A) [IgG part: P01857]. Briefly: sandwich ELISA assay D; tracer M1.19.31-Dig; analyte conc. not printed (row 8 of 8).
Assay [12] has as its target anti-VEGF/ANG2 antibody (IgG1 subclass with mutations P329G/L234A/L235A/I253A/H310A/H435A) (human) [IgG part: P01857]. As to the kind of experiment: sandwich ELISA in serum; M1.3.17-Bi capture on SA plate; tracer anti-human kappa M1.7.10-Dig; analyte 0.3125 ng/mL.
Assay [13] concerns the target anti-VEGF/ANG2 antibody (IgG1 subclass with mutations P329G/L234A/L235A/I253A/H310A/H435A) [IgG part: P01857]. Briefly: sandwich ELISA assay E; tracer M1.7.10-Dig; analyte 1) at 6.25 ng/mL.
For assay [14] the target is unchanged. As to the kind of experiment: sandwich ELISA in serum; capture M1.3.17, tracer M1.7.24; anti-VEGF/ANG2 antibody 2500 ng/mL.
The target is the same in assay [15]. Briefly: bridging ELISA; biotinylated and digoxigenylated anti-VEGF/ANG2 antibody bridged by M1.3.17 at 62.5 ng/mL.
Assay [16] has as its target anti-Dig antibody (IgG1 subclass with mutations P329G/L234A/L235A) [IgG part: P01857]. Briefly: sandwich ELISA assay D; tracer M1.7.10-Dig; analyte conc. not printed (row 5 of 8).
In assay [17] the target is anti-VEGF/ANG2 antibody (IgG1 subclass with mutations P329G/L234A/L235A/I253A/H310A/H435A) [IgG part: P01857]. Briefly: sandwich ELISA in serum; capture M1.7.10-Bi, tracer M1.7.24-Dig; anti-VEGF/ANG2 antibody 0.0390625 ng/mL.
Assay [18] has the same target. As to the kind of experiment: sandwich ELISA in serum; capture M1.7.10-Bi, tracer M1.7.24-Dig; anti-VEGF/ANG2 antibody 1.25 ng/mL.
The target of assay [19] is cytokine (IL-2) antibody conjugate with the mutations P329G, L234A, L235A, I253A, H310A, and H435A. Briefly: sandwich ELISA in serum; capture anti-IL2 antibody, tracer M1.7.24; conjugate 39.0625 ng/mL.
The target is the same in assay [20]. As to the kind of experiment: sandwich ELISA in serum; capture anti-IL2 antibody, tracer M1.7.24; conjugate 1250 ng/mL.
Assay [21] deals with anti-VEGF/ANG2 antibody (wild-type IgG1 subclass) (human) [IgG part: P01857]. Briefly: sandwich ELISA assay C; capture on SA plate; tracer FcγRI-Dig; analyte 25 ng/mL.

B1: anti-variant (human) Fc-region antibody M1.3.17 (antibody, V domains shown)
VH: EVKLLESGGGLVQPGGSLKLSCAASGIDFRRYWMNWVRQAPGKGLEWIGEIDPDSSTINYTPSLKDKFIISRDNAKNTMYLQMRKVRSEDTALYYCARPYDYGAWFAYWGQGTLVTVSA
VL: QAVVTQESALTTSPGETVTLTCRSTTGAVTTSNYANWVQEKPDHLFTGLIGGTNKRAPGVPARFSGSLIGDKAALTITGAQTEDEAIYFCALWYSDHWVFGGGTKLTVL
For the molecule B1, the signal [OD405 nm] is 0.074 OD405 nm in assay [1]; 2.27 OD405 nm in assay [2]; 2.23 OD405 nm in assay [4]; 0.15 OD405 nm in [5]; 1.6 OD405 nm in assay [7]; 0.96 OD405 nm in assay [8]. The signal [OD405 nm] in [9] is 0.107 OD405 nm; in assay [10], 0.187 OD405 nm; in [12], 0.181 OD405 nm; in assay [13], 0.677 OD405 nm; in assay [14], 2.77 OD405 nm; in [15], 0.063 OD405 nm. For the same molecule, the signal 10% cynomolgus serum [OD405 nm] in assay [3] came to 0.065 OD405 nm; in assay [6] it was 1.18 OD405 nm; in assay [11], 0.077 OD405 nm; in assay [16], 0.096 OD405 nm. Further, the signal 10% human serum [OD405 nm] in [3] was found to be 2.53 OD405 nm; in assay [6] it was 2.55 OD405 nm; in assay [11] it was 1.8 OD405 nm; in assay [16], 2.49 OD405 nm. In addition, the signal buffer [OD405 nm] worked out at 0.032 OD405 nm in [3], 0.038 OD405 nm in assay [6], 0.036 OD405 nm in assay [11] and 0.031 OD405 nm in assay [16].

B2: anti-variant (human) Fc-region antibody M1.7.24 (antibody, V domains shown)
VH: EVKLLESGGGLVQPGGSLKLSCAASGFDFSRYWMNWVRQAPGKGLEWIGEITPDSSTINYTPSLKDKFIISRDNAKNTLYLQMIKVRSEDTALYYCVRPYDYGAWFASWGQGTLVTVSA
VL: QAVVTQESALTTSPGETVTLTCRSSTGAVTTSNYANWVQEKPDHLFTGLIGGTNKRAPGVPARFSGSLIGDKAALTITGAQTEDEAIYFCALWYSNHWVFGGGTKLTVL
Regarding B2, the signal [OD405 nm] in [2] worked out at 2.22 OD405 nm; in assay [17], 0.072 OD405 nm; in assay [18] it was 0.847 OD405 nm; in [7] it was 1.55 OD405 nm; in [8] it was 0.884 OD405 nm; in assay [10], 0.172 OD405 nm. Besides, the signal [OD405 nm] in assay [19] amounted to 0.101 OD405 nm; in assay [20], 1.46 OD405 nm; in assay [13] it was 0.64 OD405 nm; in assay [21], 0.063 OD405 nm. The signal 10% cynomolgus serum [OD405 nm] in assay [3] came to 0.05 OD405 nm; in assay [6], 1.41 OD405 nm; in [11], 0.035 OD405 nm; in assay [16] it was 0.094 OD405 nm. The signal 10% human serum [OD405 nm] came to 2.4 OD405 nm in assay [3], 2.61 OD405 nm in [6], 1.42 OD405 nm in assay [11] and 2.41 OD405 nm in assay [16]. In addition, the signal buffer [OD405 nm] in assay [3] was found to be 0.031 OD405 nm; in [6], 0.046 OD405 nm; in assay [11], 0.033 OD405 nm; in assay [16] it was 0.031 OD405 nm.

B3: anti-AAA variant Fc-region antibody M1.6.22 (antibody, V domains shown)
VH: EVQLVESGGDLVKPGGSLKLSCAASGFTFSSYGMSWVRQTPDKRLEWVATISSGGSYIYYPDSVKGRFTISRDNAKNTLYLQMSSLKSEDTAMYYCARLGMITTGYAMDYWGQGTSVTVSS
VL: DVLMTQTPLSLPVSLGDQASISCRSSQTIVHSTGHTYLEWFLQKPGQSPKLLIYKVSNRFSGVPDRFSGSGSGTDFTLKISRVEAEDLGVYYCFQGSHVPYTFGGGTKLEIK
Molecule B3 returned a signal [OD405 nm] in assay [21] of 0.066 OD405 nm.
